Target: T1, PDZ1/2 domain
T1 construct: domain: PDZ1/2; also called PDZ1/2 protein
Experiment: SPR, Biacore 3000; PDZ1/2 amine-coupled to the chip, peptide as analyte, 1:1 binding model
Procedure: The immobile phase molecule (ligand) was PDZ1/2 protein with a molecular weight of approximately 20 kD at a concentration of 2 mg/ml. The mobile phase molecule (analyte) was a polypeptide to be screened with a molecular weight of approximately 2 kD at a concentration of 10 mg/ml. The CMS chip was used for fixation using a Biacore 3000 instrument. The electrophoresis buffer was PBS plus 0.005% Tween 20. Fixation was carried out using an amino coupling method. The concentration of the ligand was 10 μg/ml. The fixation buffer was 10 mM sodium acetate, pH 4.0. Fixed amount was 1400 RU, which was fixed to flow cell 2. The used flow rate was 10 μl/ml and the ligand was loaded for 1 minute. 10 mM Gly at pH 2.0+2.5 was used as a regenerant. Regeneration was carried out at a flow rate of 30 μl/min. The loading time was 30 s.

T1 sequence (P78352 65-246): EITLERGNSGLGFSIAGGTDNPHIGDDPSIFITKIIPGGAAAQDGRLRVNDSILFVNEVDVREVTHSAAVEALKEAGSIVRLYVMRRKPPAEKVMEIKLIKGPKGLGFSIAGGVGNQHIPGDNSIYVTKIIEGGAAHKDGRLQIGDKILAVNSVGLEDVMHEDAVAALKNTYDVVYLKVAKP

YGRKKRRQRRRYEKLSSIESDV [chimeric peptide YE-NA-1]
Kd: 54.4 nM

From US20190134143A1 (BIOCELLS BEIJING BIOTECH, published 2019)
